Assay [1] deals with sFasL-induced death of motoneurons. Nature of the assay: AAV-delivered COMP chimeric receptors: rescue of motoneurons from sFasL-induced death. It is filed as cell-based, mice. As to conditions: AAV vectors; sFasL 50 ng/ml; survival 48 h later. The method, then: (§1) FIG. 7 evidences the efficiency of recombinant proteins IFNγR1-COMP, DcR3-COMP, and Fas-COMP (in the form of AAV viral vectors at 1.5×10^5 TU/ml), to interfere with death induced by their respective ligand(s) or cytokine (sFasL (50 ng/ml), sLight (50 ng/ml), IFNγ (250 ng/ml)), in contrast to the negative control (COMP). Cell survival was determined 48 h later as described in Example 4. All values are expressed as the means±S.D of three independent experiments.
(§2) The functionality of the dominant negatives in inhibiting Fas and LIGHT/IFNγ-induced death was evaluated in an isolated motoneurons culture system as described in Example 2. Embryonic motoneurons isolated from spinal cords of E12.5 CD1 mice were cultured for 6 h and then infected with 50 TU/ml of indicated with AAV-IFNγR1-COMP, AAV-DcR3-COMP, AAV-Fas-COMP, or AAV-COMP viral vectors. After 6 h of incubation the culture medium was replaced and motoneurons were treated 48 h later (when indicated) with effective doses of either sFasL (50 ng/ml), sLight (50 ng/ml) or IFNγ (250 ng/ml). Forty-eight hours later, survival was determined by direct counting of motoneurons (FIG. 7). […] On the other hand, IFNγ-triggered death was blocked by IFNγR1-COMP.

Assay [2] concerns sLIGHT-induced death of motoneurons. Kind of assay: AAV-delivered COMP chimeric receptors: rescue of motoneurons from sLIGHT-induced death. As to conditions: AAV vectors; sLight 50 ng/ml; survival 48 h later. It counts as cell-based, mice. The method, then: as §1, §2
Assay [3] deals with IFNγ-triggered death of motoneurons. Nature of the assay: AAV-delivered COMP chimeric receptors: rescue of motoneurons from IFNγ-triggered death. As to conditions: AAV vectors; IFNγ 250 ng/ml; survival 48 h later. It is filed as cell-based, mice. The method, then:
as §1, §2

In assay [4] the test system is LIGHT. Nature of the assay: expression levels of LIGHT in motoneurons exposed to IFNγ. It counts as cell-based, mouse. The method, then:
Neurons were plated at the density of 20,000 cells/cm^2 in 6-cm diameter dishes containing corresponding complemented Neurobasal medium (see above). Sodium dodecyl sulfate polyacrylamide gel electrophoresis (SDS-PAGE) and Western blotting were carried out on neurons, astrocytes (duplicates) and dissected lumbar spinal cords using protocol previously described in Raoul et al., 2005, above. Primary antibodies were anti-LT-βR (sc-8377, Santa Cruz Biotechnology, 1:500), anti-LIGHT (sc-28880, Santa Cruz Biotechnology, 1:500), anti-IFNγ (sc-52557, Santa Cruz Biotechnology, 1:500), anti-IFNγR1 (559911, BD Biosciences, 1:500), anti-IFNγR2 (ab31606, Abcam, 1:2000), anti-α-tubulin (B-5-1-2, Sigma-Aldrich, 1:20,000), anti-actin (AC-40, Sigma-Aldrich, 1:20,000). Proteins were detected using horseradish peroxidase (HRP)-conjugated secondary antibodies and visualized with the chemiluminescent HRP substrate (Millipore). Where indicated, immunoblot images were quantified and normalized relative to the α-tubulin or actin levels using the NIH ImageJ software.

Assay [5] relates to motoneurons.
Procedure: Motoneuron survival was determined 48 h following treatment or not with LT-βR-Fc (100 ng/ml), Fas-Fc (1 μg/ml) or TNFR1-Fc (100 ng/ml) in combination or not with 250 ng/ml of IFNγ. The number of surviving motoneurons is expressed as a percentage of the number of motoneurons in the control condition (none).
Motoneurons from E12.5 spinal cord of CD1, Hb9::GFP, or SOD1^G93A embryos were isolated as described (Arce et al., 1999, J. Neurosci. Res., 55, 119-12) modified by Raoul et al., 2002, above, using iodixanol density gradient centrifugation. Motoneurons were plated on poly-ornithine/laminin-treated wells in the presence (or not when mentioned) of a cocktail of neurotrophic factors (0.1 ng/ml glial-derived neurotrophic factor (GDNF), 1 ng/ml brain-derived neurotrophic factor (BDNF), and 10 ng/ml ciliary neurotrophic factor (CNTF) in supplemented Neurobasal Medium™ (Invitrogen). When needed, motoneurons were electroporated before plating with the indicated expression constructs as previously described in Raoul et al., 2002, above. Motoneurons from E14 rat embryos were immunopurified using Ig192 mouse monoclonal anti-p75 antibody as previously described in Cassina et al., 2008, above and cultured in supplemented Neurobasal medium in the presence of GDNF (0.1 ng/ml). […] Cortical, hippocampal, sensory and striatal neurons were plated on poly-ornithine/laminin-treated wells and cultured in Neurobasal medium complemented with 1 mM sodium pyruvate, 2% B27 supplement (Invitrogen) at the exception of sensory neurons that were maintained in the same supplemented Neurobasal medium used for motoneurons but in the presence of 100 ng/ml nerve growth factor (NGF) instead of GDNF, BDNF and CNTF. Unless otherwise indicated, cell survival experiments were done on neurons isolated from CD1 mice. All neuronal types were seeded at the density of 1,500 cells/cm^2 and surviving neurons were directly counted under light or fluorescence microscopy.
Soluble human recombinant LIGHT and FasL, enhancer antibodies used for aggregating tagged sFasL, Fas-Fc, TNFR1-Fc, LT-βR-Fc, were purchased from Alexis Biochemicals. Soluble mouse recombinant LIGHT, functional goat polyclonal anti-LT-βR anti-HVEM antibodies were purchased from R&D systems. Soluble mouse recombinant IFNγ (source 1) was purchased from Calbiochem. Soluble mouse recombinant IFNγ (source 2) and soluble recombinant rat IFNγ were from PBL Biomedical laboratories. Neutralizing goat polyclonal anti-IFNγ antibodies (15027) were purchased from Sigma-Aldrich.
Assay [6] concerns corresponding recombinant ligand (recombinant soluble LIGHT and IFNγ). Nature of the assay: immunoprecipitation of ligand-receptor complex from conditioned media of transduced glioma cell lines. It counts as binding. As to conditions: anti-HA immunoprecipitation, immunoblot. The protocol: The constructs were checked by sequencing. The efficacy of IFNγR1-COMP, DcR3-COMP, Fas-COMP, and COMP to be efficiently secreted by astrocytes and to specifically interact with their respective ligands were evaluated in vitro by immunoprecipitation assays. Glioma cell lines were transduced with vectors encoding IFNγR1-COMP, DcR3-COMP, Fas-COMP, or COMP and conditioned media collected. Recombinant soluble LIGHT and IFNγ were added to different conditioned media. Immunoprecipitation of ligand-receptor complex were performed using anti-hemagglutinin (HA) tag antibody, since these constructs include an HA tag at their C-terminus, and immunocomplexes analysed by SDS-PAGE followed by immunoblotting with antibodies to LIGHT, IFNγR1 and IFNγ.
For orientation: Immunoblotting shows a protein as a band on a membrane.

B1: COMP: negative control generated by deleting approximately 80% of the extra-cellular part of Fas (secreted COMP) (protein)
chain: PQPQPKPQPKPEPEGDLAPQMLRELQETNAALQDVRELLRHRVKEITFLKNTVMECDACGYPYDVPDYA
modifications: amino acid sequence of a coiled-coil domain of cartilage oligomeric matrix protein
For the molecule B1, in assay [1], the “rescue of motoneurons from sFasL-induced death” value is recorded as “did not interfere”. The “rescue of motoneurons from sLIGHT-induced death” value in assay [2] is “did not interfere”. In addition, the “rescue of motoneurons from IFNγ-triggered death” value in assay [3] was “did not interfere”.

B2: IFNγ: Soluble mouse recombinant IFNγ (Calbiochem; PBL Biomedical laboratories) (protein, UniProt P01580 23-155, looked up)
Interferon gamma: HGTVIESLESLNNYFNSSGIDVEEKSLFLDIWRNWQKDGDMKILQSQIISFYLRLFEVLKDNQAISNNISVIESHLITTFFSNSKAKKDAFMSIAKFEVNNPQVQRQAFNELIRVVHQLLPESSLRKRKRSRC
Regarding B2, the “expression levels of LIGHT” value in assay [4] is “significantly enhancing”. Moreover, the “cell-type restriction of the synergistic lethal effect of IFNγ on LIGHT-induced death” value in assay [5] (compared with cortical, hippocampal, sensory and striatal neurons) is on record as “restricted to motoneurons”. Besides, in assay [5] (cultured motoneurons, survival 48 h after treatment), the death of motoneurons entry is “about 50%”. Moreover, the “effect on sFasL-induced death” value in assay [5] (motoneurons) was “no effect”. Besides, the “effect on LIGHT killing effect” value in assay [5] (suboptimal dose of sLIGHT and increasing doses of IFNγ) was “substantially enhances”. In addition, the “responsiveness of freshly isolated motoneurons to sLIGHT or agonistic anti-LT-βR antibodies” value in assay [5] (treated at 0, 24 or 72 h, IFNγ combined with sLIGHT or anti-LT-βR antibodies) is listed as “responsive to sLIGHT or agonistic anti-LT-βR antibodies”.

B3: DcR3-COMP: Extracellular part of DcR3 fused to COMP (SEQ ID NO: 17), decoy for both FasL and LIGHT, AAV-expressed (protein)
chain: MRALEGPGLSLLCLVLALPALLPVPAVRGVAETPTYPWRDAETGERLVCAQCPPGTFVQRPCRRDSPTTCGPCPPRHYTQFWNYLERCRYCNVLCGEREEEARACHATHNRACRCRTGFFAHAGFCLEHASCPPGAGVIAPGTPSQNTQCQPCPPGTFSASSSSSEQCQPHRNCTALGLALNVPGSSSHDTLCTSCTGFPLSTRVPGAEECERAVIDFVAFQDISIKRLQRLLQALEAPEGWGPTPRAGRAALQLKLRRRLTELLGAQDGALLVRLLQALRVARMPGLERSVRERFLPVHPQPQPKPQPKPEPEGDLAPQMLRELQETNAALQDVRELLRHRVKEITFLKNTVMECDACGYPYDVPDYA
modifications: AAV-expressed; Sequence for chimeric protein DcR3-COMP
As to B3, in assay [1], the “rescue of motoneurons from sFasL-induced death” value was “rescued”. In addition, the “rescue of motoneurons from sLIGHT-induced death” value in assay [2] is “rescued”. Also, in assay [6], the “interaction with corresponding recombinant ligand (immunoprecipitation)” value is given as “effectively interact”.

B4: IFNγR1-COMP: Extracellular part of IFNγR1 fused to COMP, HA-tagged (SEQ ID NO: 15), expressed from AAV vector (protein)
chain: MGPQAAAGRMILLVVLMLSAKVGSGALTSTEDPEPPSVPVPTNVLIKSYNLNPVVCWEYQNMSQTPIFTVQVKVYSGSWTDSCTNISDHCCNIYGQIMYPDVSAWARVKAKVGQKESDYARSKEFLMCLKGKVGPPGLEIRRKKEEQLSVLVFHPEVVVNGESQGTMFGDGSTCYTFDYTVYVEHNRSGEILHTKHTVEKEECNETLCELNISVSTLDSRYCISVDGISSFWQVRTEKSKDVCIPPFHDDRKERPQPQPQPKPQPKPEPEGDLAPQMLRELQETNAALQDVRELLRHRVKEITFLKNTVMECDACGYPYDVPDYA
modifications: HA tag; AAV-expressed; amino acid sequence of mouse IFN gamma R1-cartilage oligomeric matrix protein chimera
Turning to B4, the “interaction with corresponding recombinant ligand (immunoprecipitation)” value in assay [6] is “effectively interact”. The “rescue of motoneurons from IFNγ-triggered death” value in assay [3] is recorded as “blocked”.
